{"source": "patent US20260263521A1", "about": "“ANTI-CD200R1 ANTIBODY AND USE THEREOF” (AIMED BIO INC., priority 2023, published 2026)", "key": {"[1]": {"target": "human CD200R1 expressed on cells (Jurkat-CD200R1, U937-CD200R1, HH cells) (human) (UniProt Q8TD46)", "sequence (Q8TD46 25-348)": "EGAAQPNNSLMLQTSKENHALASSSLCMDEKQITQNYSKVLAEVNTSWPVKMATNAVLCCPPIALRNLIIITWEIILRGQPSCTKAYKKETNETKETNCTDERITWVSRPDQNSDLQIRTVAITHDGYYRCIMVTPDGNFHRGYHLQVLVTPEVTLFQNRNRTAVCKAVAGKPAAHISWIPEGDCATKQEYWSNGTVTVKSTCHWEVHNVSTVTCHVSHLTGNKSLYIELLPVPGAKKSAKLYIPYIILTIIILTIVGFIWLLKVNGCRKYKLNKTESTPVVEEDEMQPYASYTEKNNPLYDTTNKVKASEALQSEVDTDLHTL", "assay": "cell-based or functional assay"}, "[2]": {"target": "human CD200R1 expressed on cells (Jurkat-CD200R1, U937-CD200R1, HH cells) (human) (UniProt Q8TD46)", "assay": "flow cytometry, HH cells; drawn table"}, "[3]": {"target": "human CD200R1 expressed on cells (Jurkat-CD200R1, U937-CD200R1, HH cells) (human) (UniProt Q8TD46)", "assay": "flow cytometry, HH cells; drawn table, row EC50"}}, "data": [{"substance": "LY3454738 (US 2020/0087395, I-4P, Eli Lilly) (antibody)", "values": [{"measurement": "EC50 (nM), degree of signal transduction by the Dok2 protein", "setting": "[1]", "result": "> 10000", "unit": "nM"}, {"measurement": "IC50 (nM) of IL-6 inhibition, LPS-treated U937-CD200R1 cells", "setting": "[1]", "result": 1.72, "unit": "nM"}, {"measurement": "IC50 (nM) of TNF-α inhibition, LPS-treated U937-CD200R1 cells", "setting": "[1]", "result": 6.03, "unit": "nM"}, {"measurement": "IL-6 (pg/ml) at log [Ab] (M) -7, LPS-treated U937-CD200R1 cells", "setting": "[1]", "result": 523, "unit": "pg/ml"}, {"measurement": "IL-6 (pg/ml) at log [Ab] (M) -8, LPS-treated U937-CD200R1 cells", "setting": "[1]", "result": 1330, "unit": "pg/ml"}, {"measurement": "IL-6 (pg/ml) at log [Ab] (M) -9, LPS-treated U937-CD200R1 cells", "setting": "[1]", "result": 2670, "unit": "pg/ml"}, {"measurement": "IL-6 (pg/ml) at log [Ab] (M) -10, LPS-treated U937-CD200R1 cells", "setting": "[1]", "result": 3380, "unit": "pg/ml"}, {"measurement": "IL-6 (pg/ml) at log [Ab] (M) -11, LPS-treated U937-CD200R1 cells", "setting": "[1]", "result": 3550, "unit": "pg/ml"}, {"measurement": "IL-6 (pg/ml) at log [Ab] (M) -12, LPS-treated U937-CD200R1 cells", "setting": "[1]", "result": 4530, "unit": "pg/ml"}, {"measurement": "RLU (a.u.), phosphorylated Dok2 reporter, antibody dose 0.05 nM", "setting": "[1]", "result": 9260, "unit": "a.u."}, {"measurement": "RLU (a.u.), phosphorylated Dok2 reporter, antibody dose 0.10 nM", "setting": "[1]", "result": 8400, "unit": "a.u."}, {"measurement": "RLU (a.u.), phosphorylated Dok2 reporter, antibody dose 0.20 nM", "setting": "[1]", "result": 8000, "unit": "a.u."}, {"measurement": "RLU (a.u.), phosphorylated Dok2 reporter, antibody dose 0.39 nM", "setting": "[1]", "result": 8960, "unit": "a.u."}, {"measurement": "RLU (a.u.), phosphorylated Dok2 reporter, antibody dose 0.78 nM", "setting": "[1]", "result": 8900, "unit": "a.u."}, {"measurement": "RLU (a.u.), phosphorylated Dok2 reporter, antibody dose 1.56 nM", "setting": "[1]", "result": 9100, "unit": "a.u."}, {"measurement": "RLU (a.u.), phosphorylated Dok2 reporter, antibody dose 3.13 nM", "setting": "[1]", "result": 9470, "unit": "a.u."}, {"measurement": "RLU (a.u.), phosphorylated Dok2 reporter, antibody dose 6.25 nM", "setting": "[1]", "result": 8930, "unit": "a.u."}, {"measurement": "RLU (a.u.), phosphorylated Dok2 reporter, antibody dose 12.5 nM", "setting": "[1]", "result": 13000, "unit": "a.u."}, {"measurement": "RLU (a.u.), phosphorylated Dok2 reporter, antibody dose 25 nM", "setting": "[1]", "result": 22700, "unit": "a.u."}, {"measurement": "RLU (a.u.), phosphorylated Dok2 reporter, antibody dose 50 nM", "setting": "[1]", "result": 25600, "unit": "a.u."}, {"measurement": "TNF-α (pg/ml) at log [Ab] (M) -7, LPS-treated U937-CD200R1 cells", "setting": "[1]", "result": 472, "unit": "pg/ml"}, {"measurement": "TNF-α (pg/ml) at log [Ab] (M) -8, LPS-treated U937-CD200R1 cells", "setting": "[1]", "result": 1040, "unit": "pg/ml"}, {"measurement": "TNF-α (pg/ml) at log [Ab] (M) -9, LPS-treated U937-CD200R1 cells", "setting": "[1]", "result": 1480, "unit": "pg/ml"}, {"measurement": "TNF-α (pg/ml) at log [Ab] (M) -10, LPS-treated U937-CD200R1 cells", "setting": "[1]", "result": 3760, "unit": "pg/ml"}, {"measurement": "TNF-α (pg/ml) at log [Ab] (M) -11, LPS-treated U937-CD200R1 cells", "setting": "[1]", "result": 4950, "unit": "pg/ml"}, {"measurement": "TNF-α (pg/ml) at log [Ab] (M) -12, LPS-treated U937-CD200R1 cells", "setting": "[1]", "result": 5490, "unit": "pg/ml"}]}, {"substance": "IgG1 (antibody)", "values": [{"measurement": "Geo mean (%) at 0.05 nM", "setting": "[2]", "result": 0.8, "unit": "%"}, {"measurement": "Geo mean (%) at 0.19 nM", "setting": "[2]", "result": 0.8, "unit": "%"}, {"measurement": "Geo mean (%) at 0.78 nM", "setting": "[2]", "result": 0.8, "unit": "%"}, {"measurement": "Geo mean (%) at 3.125 nM", "setting": "[2]", "result": 0.8, "unit": "%"}, {"measurement": "Geo mean (%) at 12.5 nM", "setting": "[2]", "result": 0.8, "unit": "%"}, {"measurement": "Geo mean (%) at 50 nM", "setting": "[2]", "result": 1, "unit": "%"}, {"measurement": "Geo mean (%) at 200 nM", "setting": "[2]", "result": 1.9, "unit": "%"}, {"measurement": "Geo mean (%) at 800 nM", "setting": "[2]", "result": 3.5, "unit": "%"}, {"measurement": "EC50", "setting": "[3]", "result": 815, "unit": "nM"}]}, {"substance": "hIgG4 kappa isotype control (Crownvivo, #C0004) (antibody)", "values": [{"measurement": "IL-6 (pg/ml) at log [Ab] (M) -7, LPS-treated U937-CD200R1 cells", "setting": "[1]", "result": 3510, "unit": "pg/ml"}, {"measurement": "TNF-α (pg/ml) at log [Ab] (M) -7, LPS-treated U937-CD200R1 cells", "setting": "[1]", "result": 5090, "unit": "pg/ml"}]}]}
